Results reported in publication PMC12115362.

Experiments:
Assay in all cases: SEC; Agilent-1100, TSK G3000SWXL column; 0.2 M NaH2PO4, 0.1 M arginine, 1% IPA, pH 6.5; peaks integrated for approximate trimer percentage; N = 3
[1] = target: hMPV F pre-F design N46V_T160F (subtype A2, CAN97-83 ectodomain with foldon) (human metapneumovirus, subtype A2, strain CAN97-83 | T4)
[2] = target: hMPV F pre-F benchmark D185P (subtype A2, CAN97-83 ectodomain with foldon) (human metapneumovirus, subtype A2, strain CAN97-83 | T4)
[3] = target: hMPV F pre-F design K362F_G366F (subtype A2, CAN97-83 ectodomain with foldon) (human metapneumovirus, subtype A2, strain CAN97-83 | T4)

“hMPV F pre-F design N46V_T160F (subtype A2, CAN97-83 ectodomain with foldon) (domain or fragment)” was tested, and the Trimer (%) [1] was 94.7% and the stoichiometry N [1] was 3.

“hMPV F pre-F benchmark D185P (subtype A2, CAN97-83 ectodomain with foldon) (domain or fragment)” gave a Trimer (%) [2] of 97.1% and a stoichiometry N [2] of 3.

For “hMPV F pre-F design K362F_G366F (subtype A2, CAN97-83 ectodomain with foldon) (domain or fragment)”, the Trimer (%) [3] was 76.9% and the stoichiometry N [3] was 3.
